Paper PMC4992063, “PARP3 is a sensor of nicked nucleosomes and monoribosylates histone H2BGlu2”

Key:
[1] = molecular target: Reconstituted nicked mononucleosome (recombinant histone octamer on 601.2 DNA with a site-specific nick) (Xenopus laevis | not stated); experiment: Ni-NTA nanogold labelling with negative-stain electron microscopy; full-length His-tagged cPARP3 incubated for 30 min with intact or nicked nucleosomes; Ni-NTA-conjugated 5 nm gold added at 1:10 (cPARP3-nucleosomes:Ni-gold); negative stain with 2% uranyl acetate
[2] = test system: His-tagged cPARP3 (Gallus gallus); experiment: negative-stain EM with Ni-NTA nanogold; conditions: NMR: 20 mM Tris-HCl pH 7.0, 125 mM NaCl, 1 mM TCEP, 10% D2O, 303 K, ~300 uM protein, EMSA and EM buffers not given in material
cPARP3 NTD-WGR (1-169) [3] = molecular target: T1, cPARP3 NTD-WGR (1-169) (Gallus gallus, UniProt E1BSI0 1-169); experiment: NMR (1H-15N HSQC); NMR: 20 mM Tris-HCl pH 7.0, 125 mM NaCl, 1 mM TCEP, 10% D2O, 303 K, ~300 uM protein; EMSA and EM buffers not given in material; conditions: protein: recombinant; tags: N-terminal His tag (pNIC28-Bsa4) removed by TEV; 15N/13C labelled; 9 bp with 3' overhang 10 nt on S41
T1 sequence: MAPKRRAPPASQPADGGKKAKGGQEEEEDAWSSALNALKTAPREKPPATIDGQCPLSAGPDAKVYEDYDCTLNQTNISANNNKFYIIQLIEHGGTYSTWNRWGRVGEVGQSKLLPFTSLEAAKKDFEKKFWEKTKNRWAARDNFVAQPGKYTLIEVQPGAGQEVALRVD

cPARP3 NTD-WGR (1-169) [4] = molecular target: T1, cPARP3 NTD-WGR (1-169); experiment: NMR (1H-15N HSQC titration); protein:DNA 5:1 to 1:2; NMR: 20 mM Tris-HCl pH 7.0, 125 mM NaCl, 1 mM TCEP, 10% D2O, 303 K, ~300 uM protein; EMSA and EM buffers not given in material; conditions: protein: recombinant; tags: N-terminal His tag (pNIC28-Bsa4) removed by TEV; 15N/13C labelled; nicked duplex: S42 (10 nt) and S43 (9 nt) annealed to S41

Full-length His-tagged chicken PARP3 (from UniProt E1BSI0 1-526) (enzyme)
percent of nucleosomes with a co-locating gold particle [1]: 85%

intact 601.2 mononucleosome
binding signal (% of nucleosomes with gold particle) [2]: 30

nicked 601.2 mononucleosome
binding signal (% of nucleosomes with gold particle) ([2]; single nick at nucleotide 45 (Nt.BsmAI)): 85

B1: 10-nt 3'-overhang duplex with recessed 5'-phosphate (dsDNA)
DNA 1: GCACAGCCGTGAGCGATGC
DNA 2: CGGCTGTGC
modifications: 5'-phosphate on S43
binding result (cPARP3 NTD-WGR (1-169) [3]): binds

B2: 19-bp duplex with 5'-phosphorylated nick (Gap0 NMR) (dsDNA)
DNA 1: GCACAGCCGTGAGCGATGC
DNA 2: GCATCGCTCA
DNA 3: CGGCTGTGC
modifications: 5'-phosphate on S43
binding result (cPARP3 NTD-WGR (1-169) [4]): binds
